In paper PMC6570480, “PLK4 promotes centriole duplication by phosphorylating STIL to link the procentriole cartwheel to the microtubule wall” (eLife, 2019):

T1: Myc-GFP-Ana2 (WT) co-expressed with stabilized DmPLK4^SBM-mCherry (D. melanogaster, UniProt Q9XZ31 1-420, phosphorylated in cells by co-expressed DmPLK4^SBM-mCherry; phosphoserine at 38 (a DmPLK4 site by the cited work))
T1 construct: Ana2, D. melanogaster; it rests on the S38A mutant; also called WT Ana2; phosphorylated Ana2; source: Drosophila S2 cells, transfected together with DmPLK4^SBM-mCherry, in lysate; not shown: Myc, N-terminal, kept; GFP, N-terminal, kept
T1 sequence (looked up): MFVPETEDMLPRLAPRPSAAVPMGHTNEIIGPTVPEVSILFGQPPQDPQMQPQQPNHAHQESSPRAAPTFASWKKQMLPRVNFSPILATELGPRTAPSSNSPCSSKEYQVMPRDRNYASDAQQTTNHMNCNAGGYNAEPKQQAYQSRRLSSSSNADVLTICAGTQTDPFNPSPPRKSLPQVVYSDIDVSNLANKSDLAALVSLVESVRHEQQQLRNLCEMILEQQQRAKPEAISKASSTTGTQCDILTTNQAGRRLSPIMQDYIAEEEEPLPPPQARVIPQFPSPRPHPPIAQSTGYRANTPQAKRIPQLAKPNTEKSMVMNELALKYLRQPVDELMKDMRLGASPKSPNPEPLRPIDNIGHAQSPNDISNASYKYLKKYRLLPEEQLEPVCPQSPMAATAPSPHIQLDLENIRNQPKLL

T2: Myc-GFP-STIL (wild type) phosphorylated in cells by co-expressed kinase active PLK4^Δ24-mCherry (human, UniProt Q15468 1-1287, phosphoserine at 428 and at 1116 (phosphorylated in cells by co-expressed kinase active PLK4^Δ24-mCherry; shown with pS428 and pS1116 antibodies))
T2 construct: STIL, human; Further PLK4 sites may be phosphorylated (84 sites were found in vitro); also called WT STIL; phosphorylated STIL; source: HEK293FT, transfected together with kinase active PLK4^Δ24-mCherry, in lysate; not shown: Myc, N-terminal, kept; GFP, N-terminal, kept
T2 sequence (looked up): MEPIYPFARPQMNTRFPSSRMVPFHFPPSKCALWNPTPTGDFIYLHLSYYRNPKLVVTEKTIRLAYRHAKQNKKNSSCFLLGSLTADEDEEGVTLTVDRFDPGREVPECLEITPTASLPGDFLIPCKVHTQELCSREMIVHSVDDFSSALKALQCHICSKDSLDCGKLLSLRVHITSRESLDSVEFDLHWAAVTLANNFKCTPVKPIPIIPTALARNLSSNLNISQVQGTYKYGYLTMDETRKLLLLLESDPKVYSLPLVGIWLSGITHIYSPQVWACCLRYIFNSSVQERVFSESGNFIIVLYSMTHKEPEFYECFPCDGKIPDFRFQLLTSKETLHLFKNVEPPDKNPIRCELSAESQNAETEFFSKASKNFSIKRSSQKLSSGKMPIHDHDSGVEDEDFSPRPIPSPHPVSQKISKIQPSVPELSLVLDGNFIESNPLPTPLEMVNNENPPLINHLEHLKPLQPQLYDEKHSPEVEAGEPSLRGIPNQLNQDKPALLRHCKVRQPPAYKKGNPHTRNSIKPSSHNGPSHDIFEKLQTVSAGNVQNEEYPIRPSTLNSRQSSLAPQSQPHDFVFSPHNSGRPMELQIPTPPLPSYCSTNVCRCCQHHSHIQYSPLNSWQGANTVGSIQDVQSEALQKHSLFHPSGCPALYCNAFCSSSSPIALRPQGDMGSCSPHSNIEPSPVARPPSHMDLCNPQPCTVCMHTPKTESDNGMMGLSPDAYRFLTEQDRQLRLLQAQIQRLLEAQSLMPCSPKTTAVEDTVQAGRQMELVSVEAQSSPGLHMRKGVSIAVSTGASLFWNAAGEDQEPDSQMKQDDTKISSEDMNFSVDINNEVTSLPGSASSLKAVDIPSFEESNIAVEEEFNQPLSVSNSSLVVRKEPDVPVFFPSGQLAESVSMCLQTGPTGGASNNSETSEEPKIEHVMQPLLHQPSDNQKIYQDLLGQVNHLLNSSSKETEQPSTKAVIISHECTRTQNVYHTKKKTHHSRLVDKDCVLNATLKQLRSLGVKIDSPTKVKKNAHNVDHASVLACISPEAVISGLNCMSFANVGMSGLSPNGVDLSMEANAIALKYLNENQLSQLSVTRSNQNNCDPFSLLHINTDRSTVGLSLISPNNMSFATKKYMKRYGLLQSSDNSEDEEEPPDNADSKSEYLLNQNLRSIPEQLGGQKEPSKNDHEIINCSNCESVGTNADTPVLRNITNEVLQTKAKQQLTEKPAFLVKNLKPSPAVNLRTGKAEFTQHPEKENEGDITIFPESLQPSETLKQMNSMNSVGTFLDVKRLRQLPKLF


Columns and labels:
[1] = biological target: T1, Myc-GFP-Ana2 (WT) co-expressed with …; assay: co-IP; Drosophila S2 cells transfected with Myc-GFP-Ana2 and Flag-DmSas4 in the presence or absence of DmPLK4^SBM-mCherry; harvested 48 hr later; co-immunoprecipitation and immunoblot; conditions: partners not purified
[2] = biological target: T2, Myc-GFP-STIL (wild type) phosphorylated …; assay: co-IP; HEK293FT cells co-transfected, with kinase active or kinase dead PLK4^Δ24-mCherry where stated; lysis buffer 10 mM Tris pH 7.5, 0.1% Triton X-100, 250 mM NaCl, 1 mM EDTA, phosphatase inhibitors; Myc-GFP-STIL captured on beads coupled to GFP-binding protein; immunoblot; conditions: partners not purified

fold increase in the amount of DmSas4 bound, with against without DmPLK4^SBM [1] [fold] | fold increase in the amount of CPAP bound, kinase active against kinase inactive PLK4 [2] [fold] | Binder
> 6 |  | Flag-DmSas4 (natural protein, D. melanogaster, UniProt Q9VI72 1-901, looked up, Sas-4 (DmSas4), D. melanogaster; also called CPAP orthologue DmSas4; source: Drosophila S2 cells, transfected, in lysate; not shown: FLAG, N-terminal, kept) MQEAGESPVGMPLSQEAIAQRLAALSRWQDEQKRLLQERQSNHRVLLGLEQRNMYKMLGLLHQETESHENSVLEEWDEEHSIQMPRLAADPDEHEPEISMADPQPAKPKRPFLRRGEGLKQRFKINPDQLRLENLPRYKFANAHPQFRTPQMKKGILKKQVKSPPNPAPPPAPKPSAQLDDLNEQRFQQMLIGKNACSSTPDLKSSYASSTTASSTSPRVRFVEQKSRAGQTTHADDEASSEASPMTGVCWAKVLDTQSIKPAQIQRRSAQIRVEDDSNVSIFELLEQKATEGNIDMNSSCIRTFMARKDQRRRVADDSDHIVVTQQVRQMRLQPQVDQMLVQELQEGDEEDTEPSSDQTLTMTPIQVGNTKVRVRFSDSNDTHEYSDATSLNDGSNIQLFEQFKSALFQALEQKKKSSPSKESDEPITKDLQEKANLVRTRLEELETEIATFKEQNAQLLRLRQQHELEKAKCTQDHMEAMERVHDEKIQAEIYLHDERMKIEEERRKFEQQMRLQKSNANSKEKKEIAALKQEVEGLQLQLKQKEQAHVSAQARLRAQLRASEKEQRNYRDEIELLRKENKRLEQELVKIGRENNSKMLQEINRNIARLAPKVLPSATMSDILDENGRRTQSLDGTAGKPAKQREAQNRRQSSGSAQVRSRSRSLSRNKKTPYALDESYASSSSVESEEVQPPVTAPKAATPPPAANSSSDFKREITNADGSKDIWYPNGNLKKISADGMNLRMLYFNKDIKETNIREGTVKYYYAETNTWHTSYLDGLEILEFPNGQTEHRRKDGTVEIHFPNNSIKIVDPSDTEKLEEWRYADGTHLVQLRNGDKILNLPNGQKEIHTKLNKRREYPDGTVKLVYPDGSQETRYSNGRVRLKDKDGKLIMDTDYAKY
 | > 7 | FLAG-CPAP (natural protein, human, UniProt Q9HC77 1-1338, looked up, CPAP (CENPJ), human; also called CENPJ; source: HEK293FT, transfected, in lysate; not shown: FLAG, N-terminal, kept) MFLMPTSSELNSGQNFLTQWMTNPSRAGVILNRGFPILEADKEKRAAVDISTSFPIKGTHFSDSFSFINEEDSLLEEQKLESNNPYKPQSDKSETHTAFPCIKKGPQVAACHSAPGHQEENKNDFIPDLASEFKEGAYKDPLFKKLEQLKEVQQKKQEQLKRQQLEQLQRLMEEQEKLLTMVSGQCTLPGLSLLPDDQSQKHRSPGNTTTGERATCCFPSYVYPDPTQEETYPSNILSHEQSNFCRTAHGDFVLTSKRASPNLFSEAQYQEAPVEKNNLKEENRNHPTGESILCWEKVTEQIQEANDKNLQKHDDSSEVANIEERPIKAAIGERKQTFEDYLEEQIQLEEQELKQKQLKEAEGPLPIKAKPKQPFLKRGEGLARFTNAKSKFQKGKESKLVTNQSTSEDQPLFKMDRQQLQRKTALKNKELCADNPILKKDSKARTKSGSVTLSQKPKMLKCSNRKSLSPSGLKIQTGKKCDGQFRDQIKFENKVTSNNKENVTECPKPCDTGCTGWNKTQGKDRLPLSTGPASRLAAKSPIRETMKESESSLDVSLQKKLETWEREKEKENLELDEFLFLEQAADEISFSSNSSFVLKILERDQQICKGHRMSSTPVKAVPQKTNPADPISHCNRSEDLDHTAREKESECEVAPKQLHSLSSADELREQPCKIRKAVQKSTSENQTEWNARDDEGVPNSDSSTDSEEQLDVTIKPSTEDRERGISSREDSPQVCDDKGPFKDTRTQEDKRRDVDLDLSDKDYSSDESIMESIKHKVSEPSRSSSLSLSKMDFDDERTWTDLEENLCNHDVVLGNESTYGTPQTCYPNNEIGILDKTIKRKIAPVKRGEDLSKSRRSRSPPTSELMMKFFPSLKPKPKSDSHLGNELKLNISQDQPPGDNARSQVLREKIIELETEIEKFKAENASLAKLRIERESALEKLRKEIADFEQQKAKELARIEEFKKEEMRKLQKERKVFEKYTTAARTFPDKKEREEIQTLKQQIADLREDLKRKETKWSSTHSRLRSQIQMLVRENTDLREEIKVMERFRLDAWKRAEAIESSLEVEKKDKLANTSVRFQNSQISSGTQVEKYKKNYLPMQGNPPRRSKSAPPRDLGNLDKGQAASPREPLEPLNFPDPEYKEEEEDQDIQGEISHPDGKVEKVYKNGCRVILFPNGTRKEVSADGKTITVTFFNGDVKQVMPDQRVIYYYAAAQTTHTTYPEGLEVLHFSSGQIEKHYPDGRKEITFPDQTVKNLFPDGQEESIFPDGTIVRVQRDGNKLIEFNNGQRELHTAQFKRREYPDGTVKTVYANGHQETKYRSGRIRVKDKEGNVLMDTEL
